# Reference: paper PMC7985572, “Backbone chemical shift spectral assignments of SARS coronavirus-2 non-structural protein nsp9” (Biomolecular Nmr Assignments, 2021)
# Biological target: the molecule itself
# Assay: SEC
protein,measurement,value
"SARS-CoV-2 non-structural protein 9 (nsp9) (natural protein, also called non-structural protein nsp9; sample A; not shown: His6, N-terminal, cleaved; GST, N-terminal, cleaved) GAMGNNELSPVALRQMSCAAGTTQTACTDDNALAYYNTTKGGRFVLALLSDLQDLKWARFPKSDGTGTIYTELEPPCRFVTDTPKGPKVKYLYFIKGLNNLNRGMVLGSLAATVRLQ",stoichiometry N,2
